The chains are these.
B1: glmS ribozyme (parent)
chain: AUAAAAGCGCCAGAACUACAGAAAUGUAGUUGACGAGGAGGAGGUUUAUCGAAUUUUCGGCGGAUGCCUCCAAA

± gives the standard error. For part of these data: Variants at the floor of the assay were thinned out. Where only a bound is given, the exact number is not on record here.

Conditions in all cases: with glucosamine-6-phosphate
The variants in data set [1] derive from B1. Description: kcat; higher = faster cleavage; RNA array. In outline:
(§1)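 Glucosamine-6-phosphate, from 40 μM to 10 mM in HEPES/KCl/Mg(OAc)2 buffer, was flowed over sequenced MiSeq chips carrying barcoded ribozyme variants transcribed in situ by E. coli RNA polymerase. A hybridised Cy3 probe tracked the variants at 37 °C as tiles were imaged over ~14 h. kobs, kcat and KM were obtained by fitting normalised per-tile medians to exponential decays and then applying weighted Michaelis–Menten fits across concentrations.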

In data set [2] the parent is B1. The data set can be described thus: KM; higher = weaker cofactor use; RNA array. In a few lines:
as §1

Data set [3] covers variants of B1. Description: self-cleavage kobs at 40 uM GlcN6P; higher = faster cleavage; RNA array. In a few lines: as §1
Variants of B1 are the subject of data set [4]. The data set can be described thus: self-cleavage kobs at 160 uM GlcN6P; higher = faster cleavage; RNA array. In outline:
as §1

The variants in data set [5] derive from B1. Description: self-cleavage kobs at 640 uM GlcN6P; higher = faster cleavage; RNA array. In outline:
as §1

Variants of B1 are the subject of data set [6]. The data set can be described thus: self-cleavage kobs at 2500 uM GlcN6P; higher = faster cleavage; RNA array. In outline:
as §1

In data set [7] the parent is B1. Description: self-cleavage kobs at 10000 uM GlcN6P; higher = faster cleavage; RNA array. In a few lines: as §1

The term kcat denotes the number of substrate molecules converted per active site and unit of time at saturation. A word on the KM: it is the concentration of substrate that gives half-maximal velocity. For U45G A53U, the catalytic constant (kcat) in the data set with glucosamine-6-phosphate [1] came to 0.00477 ± 0.00059 s⁻¹. Moreover, in the data set with glucosamine-6-phosphate [2], the KM worked out at 2170 ± 340 µM. Further, the “self-cleavage kobs at 40 uM GlcN6P” value with glucosamine-6-phosphate [3] worked out at 9.6e-05 ± 1.4e-05 s⁻¹. Further, the “self-cleavage kobs at 160 uM GlcN6P” value with glucosamine-6-phosphate [4] was 0.000306 ± 5.6e-05 s⁻¹. Moreover, in the data set with glucosamine-6-phosphate [5], the “self-cleavage kobs at 640 uM GlcN6P” value worked out at 0.000953 ± 0.00022 s⁻¹. Also, the “self-cleavage kobs at 2500 uM GlcN6P” value with glucosamine-6-phosphate [6] turned out to be 0.00274 ± 0.001 s⁻¹. Moreover, in the data set with glucosamine-6-phosphate [7], the “self-cleavage kobs at 10000 uM GlcN6P” value was 0.004 ± 0.0007 s⁻¹.

For U31G A52U G62U C67G, in the data set with glucosamine-6-phosphate [1], the catalytic constant (kcat) was < 1e-05 s⁻¹. In addition, in the data set with glucosamine-6-phosphate [3], the “self-cleavage kobs at 40 uM GlcN6P” value was < 1e-05 s⁻¹. The “self-cleavage kobs at 2500 uM GlcN6P” value with glucosamine-6-phosphate [6] was < 1e-05 s⁻¹. Moreover, the “self-cleavage kobs at 10000 uM GlcN6P” value with glucosamine-6-phosphate [7] was < 1e-05 s⁻¹.

On to G51A U69G, for which the kcat in the data set with glucosamine-6-phosphate [1] is 5.93e-05 ± 1.1e-05 s⁻¹. For the same variant, the “self-cleavage kobs at 160 uM GlcN6P” value with glucosamine-6-phosphate [4] is 4.53e-05 ± 1.5e-05 s⁻¹. In addition, the “self-cleavage kobs at 640 uM GlcN6P” value in the data set with glucosamine-6-phosphate [5] was determined as 6.08e-05 ± 1.6e-05 s⁻¹. Besides, the “self-cleavage kobs at 2500 uM GlcN6P” value with glucosamine-6-phosphate [6] turned out to be 5.96e-05 ± 1.5e-05 s⁻¹.

In the case of G29A A48U, the kcat in the data set with glucosamine-6-phosphate [1] is 0.000327 ± 8.3e-05 s⁻¹. The “self-cleavage kobs at 10000 uM GlcN6P” value with glucosamine-6-phosphate [7] came out at 2.73e-05 ± 1.1e-05 s⁻¹.

In the case of A14C A48U, the kcat with glucosamine-6-phosphate [1] was found to be 5.62e-05 ± 5.4e-06 s⁻¹. For the same variant, the KM with glucosamine-6-phosphate [2] came out at 3170 ± 1200 µM. For the same variant, the “self-cleavage kobs at 10000 uM GlcN6P” value with glucosamine-6-phosphate [7] was found to be 4.26e-05 ± 7.7e-06 s⁻¹.

Turning to C10U, the kcat with glucosamine-6-phosphate [1] came out at 2.6e-05 ± 1.4e-06 s⁻¹. For the same variant, the KM with glucosamine-6-phosphate [2] is 499 ± 190 µM. For the same variant, in the data set with glucosamine-6-phosphate [3], the “self-cleavage kobs at 40 uM GlcN6P” value was < 1e-05 s⁻¹. Further, in the data set with glucosamine-6-phosphate [5], the “self-cleavage kobs at 640 uM GlcN6P” value amounted to 1.32e-05 ± 2e-06 s⁻¹. The “self-cleavage kobs at 2500 uM GlcN6P” value in the data set with glucosamine-6-phosphate [6] came to 2.39e-05 ± 1.5e-06 s⁻¹. The “self-cleavage kobs at 10000 uM GlcN6P” value with glucosamine-6-phosphate [7] came out at 2.41e-05 ± 1e-06 s⁻¹.

As to C11G G32A U69G, the kcat in the data set with glucosamine-6-phosphate [1] was 3.08e-05 ± 7e-06 s⁻¹.

A15C U65C: the kcat in the data set with glucosamine-6-phosphate [1] came to 7.01e-05 ± 1.5e-05 s⁻¹. Moreover, in the data set with glucosamine-6-phosphate [6], the “self-cleavage kobs at 2500 uM GlcN6P” value was 9.83e-05 ± 2.2e-05 s⁻¹. For the same variant, the “self-cleavage kobs at 10000 uM GlcN6P” value in the data set with glucosamine-6-phosphate [7] amounted to 6.14e-05 ± 1e-05 s⁻¹.

As to C11G, the kcat with glucosamine-6-phosphate [1] is < 1e-05 s⁻¹. Besides, in the data set with glucosamine-6-phosphate [2], the KM stood at 665 ± 260 µM. Besides, the “self-cleavage kobs at 40 uM GlcN6P” value in the data set with glucosamine-6-phosphate [3] is < 1e-05 s⁻¹. The “self-cleavage kobs at 10000 uM GlcN6P” value with glucosamine-6-phosphate [7] is < 1e-05 s⁻¹.

In the case of U57A G60U, in the data set with glucosamine-6-phosphate [1], the kcat is < 1e-05 s⁻¹. Also, in the data set with glucosamine-6-phosphate [3], the “self-cleavage kobs at 40 uM GlcN6P” value was < 1e-05 s⁻¹. For the same variant, the “self-cleavage kobs at 160 uM GlcN6P” value with glucosamine-6-phosphate [4] is < 1e-05 s⁻¹. The “self-cleavage kobs at 640 uM GlcN6P” value in the data set with glucosamine-6-phosphate [5] is < 1e-05 s⁻¹. The “self-cleavage kobs at 10000 uM GlcN6P” value in the data set with glucosamine-6-phosphate [7] was < 1e-05 s⁻¹.

Consider A39G G40U, for which the kcat with glucosamine-6-phosphate [1] was 0.0022 ± 0.00044 s⁻¹. Moreover, the Michaelis constant (KM) in the data set with glucosamine-6-phosphate [2] amounted to 1420 ± 510 µM. Further, the “self-cleavage kobs at 40 uM GlcN6P” value with glucosamine-6-phosphate [3] was determined as 9.64e-05 ± 1.6e-05 s⁻¹. Further, the “self-cleavage kobs at 160 uM GlcN6P” value in the data set with glucosamine-6-phosphate [4] amounted to 0.000207 ± 4.9e-05 s⁻¹. Moreover, the “self-cleavage kobs at 640 uM GlcN6P” value in the data set with glucosamine-6-phosphate [5] amounted to 0.000551 ± 8.8e-05 s⁻¹. Moreover, in the data set with glucosamine-6-phosphate [6], the “self-cleavage kobs at 2500 uM GlcN6P” value is 0.0015 ± 0.00022 s⁻¹. Besides, in the data set with glucosamine-6-phosphate [7], the “self-cleavage kobs at 10000 uM GlcN6P” value is 0.00197 ± 0.00022 s⁻¹.

Turning to A42G U47G, the kcat with glucosamine-6-phosphate [1] came out at 0.00929 ± 0.0033 s⁻¹. The “self-cleavage kobs at 40 uM GlcN6P” value with glucosamine-6-phosphate [3] was determined as 0.000293 ± 6.2e-05 s⁻¹. Further, the “self-cleavage kobs at 160 uM GlcN6P” value with glucosamine-6-phosphate [4] was determined as 0.00105 ± 0.00032 s⁻¹. Further, the “self-cleavage kobs at 640 uM GlcN6P” value with glucosamine-6-phosphate [5] was 0.0029 ± 0.00064 s⁻¹. For the same variant, in the data set with glucosamine-6-phosphate [6], the “self-cleavage kobs at 2500 uM GlcN6P” value was 0.0046 ± 0.001 s⁻¹. The “self-cleavage kobs at 10000 uM GlcN6P” value with glucosamine-6-phosphate [7] was found to be 0.0143 ± 0.0028 s⁻¹.

Regarding A15C U30A A48U, the kcat in the data set with glucosamine-6-phosphate [1] worked out at 6.89e-05 ± 1.4e-05 s⁻¹. Moreover, the “self-cleavage kobs at 40 uM GlcN6P” value with glucosamine-6-phosphate [3] was < 1e-05 s⁻¹. Also, the “self-cleavage kobs at 2500 uM GlcN6P” value with glucosamine-6-phosphate [6] came to 4.08e-05 ± 1.4e-05 s⁻¹. In addition, the “self-cleavage kobs at 10000 uM GlcN6P” value in the data set with glucosamine-6-phosphate [7] is 5.4e-05 ± 2e-05 s⁻¹.

As to A15U G29A, the kcat in the data set with glucosamine-6-phosphate [1] was 0.00194 ± 0.00084 s⁻¹. Further, the “self-cleavage kobs at 160 uM GlcN6P” value with glucosamine-6-phosphate [4] stood at 7.32e-05 ± 1.6e-05 s⁻¹. Besides, the “self-cleavage kobs at 640 uM GlcN6P” value with glucosamine-6-phosphate [5] is 0.000218 ± 4.3e-05 s⁻¹. Also, the “self-cleavage kobs at 2500 uM GlcN6P” value with glucosamine-6-phosphate [6] was determined as 0.00039 ± 0.0001 s⁻¹. Moreover, the “self-cleavage kobs at 10000 uM GlcN6P” value in the data set with glucosamine-6-phosphate [7] stood at 0.00142 ± 0.0002 s⁻¹.

With A14G G32C C70U, the kcat with glucosamine-6-phosphate [1] amounted to 0.000668 ± 0.00026 s⁻¹. In addition, in the data set with glucosamine-6-phosphate [6], the “self-cleavage kobs at 2500 uM GlcN6P” value is 9.2e-05 ± 3.3e-05 s⁻¹. Also, in the data set with glucosamine-6-phosphate [7], the “self-cleavage kobs at 10000 uM GlcN6P” value is 0.000239 ± 4.4e-05 s⁻¹.

On to C11U C58G, for which, in the data set with glucosamine-6-phosphate [1], the kcat amounted to 3.35e-05 ± 2.6e-07 s⁻¹. Besides, in the data set with glucosamine-6-phosphate [2], the KM was determined as 188 ± 18 µM. Further, the “self-cleavage kobs at 2500 uM GlcN6P” value with glucosamine-6-phosphate [6] amounted to 3.13e-05 ± 1e-05 s⁻¹. The “self-cleavage kobs at 10000 uM GlcN6P” value with glucosamine-6-phosphate [7] was 3.28e-05 ± 7.7e-06 s⁻¹.

A15C U54A: in the data set with glucosamine-6-phosphate [1], the kcat amounted to 0.00654 ± 0.0017 s⁻¹. Further, in the data set with glucosamine-6-phosphate [2], the KM came out at 1930 ± 730 µM. Moreover, in the data set with glucosamine-6-phosphate [3], the “self-cleavage kobs at 40 uM GlcN6P” value came out at 0.000164 ± 2.4e-05 s⁻¹. Also, in the data set with glucosamine-6-phosphate [4], the “self-cleavage kobs at 160 uM GlcN6P” value is 0.000559 ± 0.00011 s⁻¹. Further, the “self-cleavage kobs at 640 uM GlcN6P” value in the data set with glucosamine-6-phosphate [5] was 0.0012 ± 0.00025 s⁻¹. In addition, the “self-cleavage kobs at 2500 uM GlcN6P” value with glucosamine-6-phosphate [6] worked out at 0.00329 ± 0.00066 s⁻¹. For the same variant, in the data set with glucosamine-6-phosphate [7], the “self-cleavage kobs at 10000 uM GlcN6P” value was found to be 0.00638 ± 0.00097 s⁻¹.
